Measurements as given in patent publication US20220289795, “EFFICIENT METHOD FOR PREPARING PPR PROTEIN AND USE OF THE SAME” (EditForce, Inc., published 2022).

What was measured:
Test in all cases: ELONA; RPB-ELISA
NL_v2_PPR15 = molecular target: T1, NL_v2_PPR15 (Artificial Sequence); conditions: tags: N-term luciferase, C-term 6xHis; label: 5'-biotin
T1 chain: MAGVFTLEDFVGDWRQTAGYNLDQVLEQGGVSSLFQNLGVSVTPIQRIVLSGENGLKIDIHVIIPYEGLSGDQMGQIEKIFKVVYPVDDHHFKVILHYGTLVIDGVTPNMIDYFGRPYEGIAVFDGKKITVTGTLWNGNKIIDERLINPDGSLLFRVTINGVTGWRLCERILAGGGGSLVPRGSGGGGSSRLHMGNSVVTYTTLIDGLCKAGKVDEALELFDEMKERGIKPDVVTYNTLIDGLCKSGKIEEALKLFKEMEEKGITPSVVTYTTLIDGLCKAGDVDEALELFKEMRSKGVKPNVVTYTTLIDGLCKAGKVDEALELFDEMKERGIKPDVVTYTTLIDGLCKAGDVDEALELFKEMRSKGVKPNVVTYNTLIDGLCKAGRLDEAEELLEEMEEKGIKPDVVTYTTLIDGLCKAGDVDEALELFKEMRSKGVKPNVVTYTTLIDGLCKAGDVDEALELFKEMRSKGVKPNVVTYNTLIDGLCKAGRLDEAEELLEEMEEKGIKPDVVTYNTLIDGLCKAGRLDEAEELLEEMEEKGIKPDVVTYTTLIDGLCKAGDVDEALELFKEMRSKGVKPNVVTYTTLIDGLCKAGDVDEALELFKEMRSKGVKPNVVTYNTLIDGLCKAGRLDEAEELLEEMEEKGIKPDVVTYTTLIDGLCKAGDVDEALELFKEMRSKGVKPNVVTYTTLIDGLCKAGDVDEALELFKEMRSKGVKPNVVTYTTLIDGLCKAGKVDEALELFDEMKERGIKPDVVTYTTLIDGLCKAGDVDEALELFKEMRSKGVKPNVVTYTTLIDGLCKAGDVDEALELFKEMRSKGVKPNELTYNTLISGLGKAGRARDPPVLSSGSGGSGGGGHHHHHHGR

v3.1_PPR15 = molecular target: T2, v3.1_PPR15 (Artificial Sequence); conditions: tags: luciferase fusion; label: 5'-biotin
T2 chain: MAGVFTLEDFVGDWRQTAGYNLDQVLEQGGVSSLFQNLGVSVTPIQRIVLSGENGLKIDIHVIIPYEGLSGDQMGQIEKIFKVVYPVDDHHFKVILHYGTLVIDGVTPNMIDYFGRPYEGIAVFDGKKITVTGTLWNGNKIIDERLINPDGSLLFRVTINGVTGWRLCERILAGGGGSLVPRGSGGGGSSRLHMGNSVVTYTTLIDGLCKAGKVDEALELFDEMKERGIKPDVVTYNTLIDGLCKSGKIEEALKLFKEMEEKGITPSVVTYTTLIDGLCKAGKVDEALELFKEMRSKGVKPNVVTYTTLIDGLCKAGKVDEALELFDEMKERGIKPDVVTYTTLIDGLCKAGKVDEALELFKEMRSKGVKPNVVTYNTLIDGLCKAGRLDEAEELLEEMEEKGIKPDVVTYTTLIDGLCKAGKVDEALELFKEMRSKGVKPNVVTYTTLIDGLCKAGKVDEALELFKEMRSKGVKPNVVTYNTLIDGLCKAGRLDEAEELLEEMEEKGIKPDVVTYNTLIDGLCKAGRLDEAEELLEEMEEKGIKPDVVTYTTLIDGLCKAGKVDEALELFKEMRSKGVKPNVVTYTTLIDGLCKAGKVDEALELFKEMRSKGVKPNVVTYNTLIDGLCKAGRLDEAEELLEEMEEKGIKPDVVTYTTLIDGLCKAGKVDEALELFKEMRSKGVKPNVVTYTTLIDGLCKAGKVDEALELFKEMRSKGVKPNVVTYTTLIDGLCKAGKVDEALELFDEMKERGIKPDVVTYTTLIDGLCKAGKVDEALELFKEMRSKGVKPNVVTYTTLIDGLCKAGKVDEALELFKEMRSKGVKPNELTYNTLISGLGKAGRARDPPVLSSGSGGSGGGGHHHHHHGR

v3.1_PPR14 = molecular target: T3, v3.1_PPR14 (Artificial Sequence); conditions: tags: luciferase fusion; label: 5'-biotin
T3 chain: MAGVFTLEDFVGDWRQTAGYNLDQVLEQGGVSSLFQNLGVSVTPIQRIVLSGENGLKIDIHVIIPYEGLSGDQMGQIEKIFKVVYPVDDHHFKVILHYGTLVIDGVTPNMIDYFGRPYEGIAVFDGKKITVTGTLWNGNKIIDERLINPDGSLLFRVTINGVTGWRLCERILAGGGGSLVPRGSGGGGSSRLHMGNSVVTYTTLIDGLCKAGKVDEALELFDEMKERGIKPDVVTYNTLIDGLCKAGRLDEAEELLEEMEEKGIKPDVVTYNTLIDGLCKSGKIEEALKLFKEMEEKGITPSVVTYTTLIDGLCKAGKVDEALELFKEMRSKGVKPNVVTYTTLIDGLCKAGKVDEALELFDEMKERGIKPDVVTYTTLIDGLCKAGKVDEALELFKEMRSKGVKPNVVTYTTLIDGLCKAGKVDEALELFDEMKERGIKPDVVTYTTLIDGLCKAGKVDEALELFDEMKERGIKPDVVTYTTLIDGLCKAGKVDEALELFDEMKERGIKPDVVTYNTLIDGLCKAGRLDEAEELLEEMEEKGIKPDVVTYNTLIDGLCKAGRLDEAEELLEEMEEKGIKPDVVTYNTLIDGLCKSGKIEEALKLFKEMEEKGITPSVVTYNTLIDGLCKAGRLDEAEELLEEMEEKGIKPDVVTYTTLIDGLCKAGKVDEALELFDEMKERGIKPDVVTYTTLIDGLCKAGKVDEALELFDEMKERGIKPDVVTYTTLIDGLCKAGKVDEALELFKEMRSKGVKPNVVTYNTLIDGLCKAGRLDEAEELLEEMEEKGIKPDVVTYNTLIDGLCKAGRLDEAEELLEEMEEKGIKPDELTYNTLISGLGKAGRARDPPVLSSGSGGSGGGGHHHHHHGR

NL_v2_PPR14 = molecular target: T4, NL_v2_PPR14 (Artificial Sequence); conditions: tags: N-term luciferase, C-term 6xHis; label: 5'-biotin
T4 chain: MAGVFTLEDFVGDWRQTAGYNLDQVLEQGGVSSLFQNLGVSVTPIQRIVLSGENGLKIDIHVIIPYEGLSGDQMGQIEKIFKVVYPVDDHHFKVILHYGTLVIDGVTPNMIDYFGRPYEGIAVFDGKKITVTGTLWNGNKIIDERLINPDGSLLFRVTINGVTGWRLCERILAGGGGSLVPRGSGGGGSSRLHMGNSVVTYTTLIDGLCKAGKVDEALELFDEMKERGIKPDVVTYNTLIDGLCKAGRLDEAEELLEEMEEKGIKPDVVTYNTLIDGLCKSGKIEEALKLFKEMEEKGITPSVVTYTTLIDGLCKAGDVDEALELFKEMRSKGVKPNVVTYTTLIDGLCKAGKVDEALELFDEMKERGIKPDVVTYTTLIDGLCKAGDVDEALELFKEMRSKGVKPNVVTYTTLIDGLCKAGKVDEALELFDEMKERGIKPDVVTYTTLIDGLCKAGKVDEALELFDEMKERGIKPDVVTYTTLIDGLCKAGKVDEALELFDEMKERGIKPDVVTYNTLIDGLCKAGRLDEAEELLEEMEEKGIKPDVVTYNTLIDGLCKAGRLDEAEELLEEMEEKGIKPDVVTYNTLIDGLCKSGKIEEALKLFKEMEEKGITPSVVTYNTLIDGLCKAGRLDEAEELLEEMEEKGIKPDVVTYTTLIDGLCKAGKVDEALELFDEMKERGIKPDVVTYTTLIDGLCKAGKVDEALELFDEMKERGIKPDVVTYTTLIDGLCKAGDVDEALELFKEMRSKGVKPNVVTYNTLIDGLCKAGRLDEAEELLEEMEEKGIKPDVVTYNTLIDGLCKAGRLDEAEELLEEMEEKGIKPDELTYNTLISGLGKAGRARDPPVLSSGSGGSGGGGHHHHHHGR

NL_v2_PPR13 = molecular target: T5, NL_v2_PPR13 (Artificial Sequence); conditions: tags: N-term luciferase, C-term 6xHis; label: 5'-biotin
T5 chain: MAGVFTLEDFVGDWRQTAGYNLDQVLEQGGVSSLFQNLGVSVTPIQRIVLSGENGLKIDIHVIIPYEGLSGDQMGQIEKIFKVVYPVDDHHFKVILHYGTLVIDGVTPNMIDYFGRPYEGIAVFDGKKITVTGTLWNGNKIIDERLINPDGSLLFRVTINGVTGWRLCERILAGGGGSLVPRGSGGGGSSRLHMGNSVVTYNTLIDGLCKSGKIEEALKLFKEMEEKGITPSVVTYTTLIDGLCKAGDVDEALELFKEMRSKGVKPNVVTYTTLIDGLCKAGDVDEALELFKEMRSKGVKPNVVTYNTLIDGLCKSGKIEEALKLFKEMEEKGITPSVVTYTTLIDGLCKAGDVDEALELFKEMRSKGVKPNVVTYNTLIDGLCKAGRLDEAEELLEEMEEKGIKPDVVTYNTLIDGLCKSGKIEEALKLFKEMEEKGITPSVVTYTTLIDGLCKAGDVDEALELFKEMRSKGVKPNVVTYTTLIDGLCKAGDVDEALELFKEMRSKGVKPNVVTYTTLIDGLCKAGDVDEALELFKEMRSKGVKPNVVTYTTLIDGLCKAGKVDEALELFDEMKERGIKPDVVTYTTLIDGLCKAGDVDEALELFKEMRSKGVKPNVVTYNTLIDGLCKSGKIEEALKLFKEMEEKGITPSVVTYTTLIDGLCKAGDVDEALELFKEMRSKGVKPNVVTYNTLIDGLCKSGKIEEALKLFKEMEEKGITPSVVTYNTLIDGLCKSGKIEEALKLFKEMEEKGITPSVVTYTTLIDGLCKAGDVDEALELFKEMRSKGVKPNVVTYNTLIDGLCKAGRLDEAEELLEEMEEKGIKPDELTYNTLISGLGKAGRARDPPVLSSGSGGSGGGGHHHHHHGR

v3.1_PPR13 = molecular target: T6, v3.1_PPR13 (Artificial Sequence); conditions: tags: luciferase fusion; label: 5'-biotin
T6 chain: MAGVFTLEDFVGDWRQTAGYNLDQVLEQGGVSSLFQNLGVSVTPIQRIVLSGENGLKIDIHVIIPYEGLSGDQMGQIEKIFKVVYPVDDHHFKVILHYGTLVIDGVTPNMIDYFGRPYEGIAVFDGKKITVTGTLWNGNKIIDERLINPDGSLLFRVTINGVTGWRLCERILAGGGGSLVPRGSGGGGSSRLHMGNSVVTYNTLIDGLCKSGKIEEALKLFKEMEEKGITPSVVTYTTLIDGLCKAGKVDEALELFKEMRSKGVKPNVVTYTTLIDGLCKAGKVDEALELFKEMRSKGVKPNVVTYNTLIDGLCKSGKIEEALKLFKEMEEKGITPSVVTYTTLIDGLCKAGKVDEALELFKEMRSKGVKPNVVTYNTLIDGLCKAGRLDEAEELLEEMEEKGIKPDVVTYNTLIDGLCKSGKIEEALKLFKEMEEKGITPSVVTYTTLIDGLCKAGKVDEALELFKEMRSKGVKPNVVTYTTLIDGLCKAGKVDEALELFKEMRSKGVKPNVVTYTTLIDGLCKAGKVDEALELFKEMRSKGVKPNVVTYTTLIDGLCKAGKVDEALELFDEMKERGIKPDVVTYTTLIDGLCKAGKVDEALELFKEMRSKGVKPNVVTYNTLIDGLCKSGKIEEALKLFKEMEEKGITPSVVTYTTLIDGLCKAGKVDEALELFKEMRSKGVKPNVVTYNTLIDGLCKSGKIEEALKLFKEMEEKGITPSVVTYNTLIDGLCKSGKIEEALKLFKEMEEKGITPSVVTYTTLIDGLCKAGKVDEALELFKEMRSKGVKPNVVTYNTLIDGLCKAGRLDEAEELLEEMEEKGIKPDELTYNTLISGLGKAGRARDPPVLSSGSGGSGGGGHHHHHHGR

GACAUGCGCAGAUAAUUAAUAAGAAGACUG (ssRNA) [RNA_15] was tested, and the binding signal (NL_v2_PPR15) was 1.3e+07 luminescence and the binding signal (v3.1_PPR15) was 3.2e+07 luminescence.

GACAUGCGUCAGAGGGUUCUGGAUUGACUG (ssRNA) [RNA_14] showed a binding signal (v3.1_PPR14) of 2.5e+07 luminescence and a binding signal (NL_v2_PPR14) of 2.5e+07 luminescence.

For GACAUGCCAACAUCAAAGACACCAUGACUG (ssRNA) [RNA_13], the binding signal (NL_v2_PPR13) was 2.3e+06 luminescence and the binding signal (v3.1_PPR13) was 4e+07 luminescence.
